Measurements as given in patent US7893216B2 (The Institute of Basic Medical Sciences of Chinese Academy …, priority 2004, dated 2011).

Columns and labels:
[1] = system: tumor cells such as liver and lung cancer; assay: Synergy of tumoricidal activity with TRAIL; assay type: cell-based; conditions: combined with TRAIL
[2] = Toxicity study in mice
[3] = system: human leukemia, liver and lung cancer cells; assay: Suppression of tumor formation and growth of human tumor cells in nude mice; assay type: in vivo; conditions: compared to the control group
Experimental: (§1) The dose was 15 mg/kg, three times administration in total. The mice of negative control group (n=8) were administrated with physical saline. The mice of positive control group (n=5) were administrated with cyclophosphamide (CTX, 60 mg/kg). […] Three weeks later, the mice were sacrificed and the growth of tumor was determined by the weight of the tumor mass.

[4] = system: human primary normal lymphocytes; assay: Effect on normal human primary lymphocytes in vitro (MTS); assay type: cell-based
Experimental: (§2) After treatment, MTS reagent (Promega, USA) was then added and reacted for 2-4 hours and the absorbance values (OD value) of each well were read by using an automatic multi-well spectrophotometer, Wellscan MK3 (Thermo Labsystems, Finland) at the wavelength of 492 nm. OD value of no cell wells is considered as “0,” and the survival rate of the cells is equal to ratio of OD value of treated wells to OD value of control wells.

[5] = system: leukemia, liver and lung cancer cells; assay: Tumoricidal activity in vitro (MTS cell viability); assay type: cell-based, human
Experimental: as §2

[6] = target: T1, recombinant human DR4 extracellular domain protein (Homo sapiens, UniProt O00220); assay: ELISA cross-reactivity of AD5-10 with DR4; assay type: binding
T1 construct: recombinant human DR4 or DR5 extracellular domain protein expressed in E. coli; made in house; host or cells: E. coli
T1 sequence (O00220 24-239 limits assumed): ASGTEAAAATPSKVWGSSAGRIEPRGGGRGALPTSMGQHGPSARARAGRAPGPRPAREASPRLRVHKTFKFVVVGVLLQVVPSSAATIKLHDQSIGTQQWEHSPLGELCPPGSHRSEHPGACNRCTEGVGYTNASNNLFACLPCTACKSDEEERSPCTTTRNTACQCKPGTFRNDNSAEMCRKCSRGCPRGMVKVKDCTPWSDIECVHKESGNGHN
Experimental: ELISA was used for testing the specific combination of AD5-10 with its anitgen. ELISA plates (Costar, USA) were coated with recombinant human DR4 or DR5 extracellular domain protein expressed in E. coli over night, blocked with 5% nonfat milk at room temperature for two hours. […] The absorbency at 492 nm was measured on a microtiter reader of enzyme-labelled machine, Wellscan MK3 (Thermo Labsystems, Finland).

[7] = system: Jurkat cells; assay: Western blot of caspase activation and PARP cleavage; assay type: cell-based, human
Experimental: After the collected cells were lysed in cell cleavage solution, SDS-PAGE was used, the proteins separated in the gel were subsequently electrotransferred onto a polyvinylidene difluoride (PVDF) membrane. The membrane was then incubated with the indicated primary antibodies (Santa Cruz, USA) and probed with HRP-conjugated secondary antibodies (Beijing Zhongshan Co.). The proteins were visualized by ECL Plus Western Blotting Detection System (Amersham Biosciences, USA).

[8] = system: liver cancer cells SMMC-7721; assay: Tumoricidal activity in vivo, SMMC-7721 cells in nude mice; parameters: species or system nude mice BALB/c; conditions: SMMC-7721 in nude mice
Experimental: as §1

B1: AD5-10: murine monoclonal antibody against human TRAIL receptor DR5, subtype IgG3κ, VL SEQ ID No. 1, VH SEQ ID No. 2, hybridoma CGMCC 1192 (antibody, V domains shown)
VH: QIQLVQSGPELKKPGETVKISCKASGYTFTDFSMNWVKQAPGKGLKWMGWINTETGEPTYADDFKGRFALSMETSASTAYLQINNLKNEDTATYFCVRIDYWGQGTTLTVSS
VL: DVVMTQTPLSLPVSLGDQASISCRSSQSLVHSNGNTYLHWYLQKPGQSPKLLIYKVSNRFSGVPDRFSGSGSGTDFTLKISRVEAEDLGVYFCFQSTHVPHTFGGGTKLEIKR
modifications: mus musculus
synergy with TRAIL [1]: can synergize the tumoricidal activity with TRAIL | death and abnormalism in appetite, function, skin and hair ([2]; 150 mg/kg, 1 and 2 month's observation): does not cause observably death | histological analysis of organs ([2]; mice, organs such as liver): no pathological changes | inhibition rate [3]: about 80% | toxicity to normal lymphocytes [4]: without toxicity to human primary normal lymphocytes in vitro | killing of tumor cells [5]: kills leukemia, liver and lung cancer cells with dose-dependent manner | cross-reaction with death receptor DR4 [6]: does not cross-react | caspase cascade activation and PARP cleavage [7]: activates caspase cascade and PARP (poly ADP-ribose polymerase) cleavage | tumor formation ([8]; early treatment): inhibits the tumor formation | tumor growth ([8]; late treatment): inhibites the tumor growth
